Experimental data: patent US20210388087A1

target: Human CD137 ECD (human); assay: SPR, vs parent H183/L072
Sequence (chain, as listed by the source limits assumed): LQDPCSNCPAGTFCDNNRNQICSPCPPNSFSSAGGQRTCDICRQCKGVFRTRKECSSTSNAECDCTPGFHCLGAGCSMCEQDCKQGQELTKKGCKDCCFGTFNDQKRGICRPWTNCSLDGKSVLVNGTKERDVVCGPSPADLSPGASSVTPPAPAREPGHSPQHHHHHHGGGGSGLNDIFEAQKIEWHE

Row | Binder | fold change of affinity [fold]
1 | dBBDu183H A102W / dBBDu072L (antibody, name in Kabat numbering, V domains shown) VH: QVQLVESGGGLVQPGRSLRLSCAASGFTFSNAWMHWVRQAPGKGLEWVAQIKDKGNAYAAYYAPSVKGRFTISRDDSKNSIYLQMNSLKTEDTAVYYCHYVHYASASTVLPAFGVDWWGQGTTVTVSS VL: DIVMTQSPLSLPVTPGEPASISCQASQELVHMNRNTYLHWYQQKPGQAPRLLIYKVSNRFPGVPDRFSGSGSGTDFTLKISRVEAEDVGVYYCAQGTSVPFTFGQGTKLEIK | 0
2 | dBBDu183H D101W / dBBDu072L (antibody, name in Kabat numbering, V domains shown) VH: QVQLVESGGGLVQPGRSLRLSCAASGFTFSNAWMHWVRQAPGKGLEWVAQIKDKGNAYAAYYAPSVKGRFTISRDDSKNSIYLQMNSLKTEDTAVYYCHYVHYASASTVLPAFGVWAWGQGTTVTVSS VL: DIVMTQSPLSLPVTPGEPASISCQASQELVHMNRNTYLHWYQQKPGQAPRLLIYKVSNRFPGVPDRFSGSGSGTDFTLKISRVEAEDVGVYYCAQGTSVPFTFGQGTKLEIK | 0
3 | dBBDu183H D101F / dBBDu072L (antibody, name in Kabat numbering, V domains shown) VH: QVQLVESGGGLVQPGRSLRLSCAASGFTFSNAWMHWVRQAPGKGLEWVAQIKDKGNAYAAYYAPSVKGRFTISRDDSKNSIYLQMNSLKTEDTAVYYCHYVHYASASTVLPAFGVFAWGQGTTVTVSS VL: DIVMTQSPLSLPVTPGEPASISCQASQELVHMNRNTYLHWYQQKPGQAPRLLIYKVSNRFPGVPDRFSGSGSGTDFTLKISRVEAEDVGVYYCAQGTSVPFTFGQGTKLEIK | 0
4 | dBBDu183H H93W / dBBDu072L (antibody, name in Kabat numbering, V domains shown) VH: QVQLVESGGGLVQPGRSLRLSCAASGFTFSNAWMHWVRQAPGKGLEWVAQIKDKGNAYAAYYAPSVKGRFTISRDDSKNSIYLQMNSLKTEDTAVYYCWYVHYASASTVLPAFGVDAWGQGTTVTVSS VL: DIVMTQSPLSLPVTPGEPASISCQASQELVHMNRNTYLHWYQQKPGQAPRLLIYKVSNRFPGVPDRFSGSGSGTDFTLKISRVEAEDVGVYYCAQGTSVPFTFGQGTKLEIK | 0
5 | dBBDu183H G100hW / dBBDu072L (antibody, name in Kabat numbering, V domains shown) VH: QVQLVESGGGLVQPGRSLRLSCAASGFTFSNAWMHWVRQAPGKGLEWVAQIKDKGNAYAAYYAPSVKGRFTISRDDSKNSIYLQMNSLKTEDTAVYYCHYVHYASASTVLPAFWVDAWGQGTTVTVSS VL: DIVMTQSPLSLPVTPGEPASISCQASQELVHMNRNTYLHWYQQKPGQAPRLLIYKVSNRFPGVPDRFSGSGSGTDFTLKISRVEAEDVGVYYCAQGTSVPFTFGQGTKLEIK | 0
6 | dBBDu183H A100fW / dBBDu072L (antibody, name in Kabat numbering, V domains shown) VH: QVQLVESGGGLVQPGRSLRLSCAASGFTFSNAWMHWVRQAPGKGLEWVAQIKDKGNAYAAYYAPSVKGRFTISRDDSKNSIYLQMNSLKTEDTAVYYCHYVHYASASTVLPWFGVDAWGQGTTVTVSS VL: DIVMTQSPLSLPVTPGEPASISCQASQELVHMNRNTYLHWYQQKPGQAPRLLIYKVSNRFPGVPDRFSGSGSGTDFTLKISRVEAEDVGVYYCAQGTSVPFTFGQGTKLEIK | 0
7 | dBBDu183H A102F / dBBDu072L (antibody, name in Kabat numbering, V domains shown) VH: QVQLVESGGGLVQPGRSLRLSCAASGFTFSNAWMHWVRQAPGKGLEWVAQIKDKGNAYAAYYAPSVKGRFTISRDDSKNSIYLQMNSLKTEDTAVYYCHYVHYASASTVLPAFGVDFWGQGTTVTVSS VL: DIVMTQSPLSLPVTPGEPASISCQASQELVHMNRNTYLHWYQQKPGQAPRLLIYKVSNRFPGVPDRFSGSGSGTDFTLKISRVEAEDVGVYYCAQGTSVPFTFGQGTKLEIK | 0
8 | dBBDu183H A100fF / dBBDu072L (antibody, name in Kabat numbering, V domains shown) VH: QVQLVESGGGLVQPGRSLRLSCAASGFTFSNAWMHWVRQAPGKGLEWVAQIKDKGNAYAAYYAPSVKGRFTISRDDSKNSIYLQMNSLKTEDTAVYYCHYVHYASASTVLPFFGVDAWGQGTTVTVSS VL: DIVMTQSPLSLPVTPGEPASISCQASQELVHMNRNTYLHWYQQKPGQAPRLLIYKVSNRFPGVPDRFSGSGSGTDFTLKISRVEAEDVGVYYCAQGTSVPFTFGQGTKLEIK | 0
9 | dBBDu183H G100hF / dBBDu072L (antibody, name in Kabat numbering, V domains shown) VH: QVQLVESGGGLVQPGRSLRLSCAASGFTFSNAWMHWVRQAPGKGLEWVAQIKDKGNAYAAYYAPSVKGRFTISRDDSKNSIYLQMNSLKTEDTAVYYCHYVHYASASTVLPAFFVDAWGQGTTVTVSS VL: DIVMTQSPLSLPVTPGEPASISCQASQELVHMNRNTYLHWYQQKPGQAPRLLIYKVSNRFPGVPDRFSGSGSGTDFTLKISRVEAEDVGVYYCAQGTSVPFTFGQGTKLEIK | 0
10 | dBBDu183H A98W / dBBDu072L (antibody, name in Kabat numbering, V domains shown) VH: QVQLVESGGGLVQPGRSLRLSCAASGFTFSNAWMHWVRQAPGKGLEWVAQIKDKGNAYAAYYAPSVKGRFTISRDDSKNSIYLQMNSLKTEDTAVYYCHYVHYWSASTVLPAFGVDAWGQGTTVTVSS VL: DIVMTQSPLSLPVTPGEPASISCQASQELVHMNRNTYLHWYQQKPGQAPRLLIYKVSNRFPGVPDRFSGSGSGTDFTLKISRVEAEDVGVYYCAQGTSVPFTFGQGTKLEIK | 0
11 | dBBDu183H A100W / dBBDu072L (antibody, name in Kabat numbering, V domains shown) VH: QVQLVESGGGLVQPGRSLRLSCAASGFTFSNAWMHWVRQAPGKGLEWVAQIKDKGNAYAAYYAPSVKGRFTISRDDSKNSIYLQMNSLKTEDTAVYYCHYVHYASWSTVLPAFGVDAWGQGTTVTVSS VL: DIVMTQSPLSLPVTPGEPASISCQASQELVHMNRNTYLHWYQQKPGQAPRLLIYKVSNRFPGVPDRFSGSGSGTDFTLKISRVEAEDVGVYYCAQGTSVPFTFGQGTKLEIK | 0

Results, then the binder that gave them:

Row | fold change of affinity [fold] | Binder
12 | 0 | dBBDu183H L100dF / dBBDu072L (antibody, name in Kabat numbering, V domains shown) VH: QVQLVESGGGLVQPGRSLRLSCAASGFTFSNAWMHWVRQAPGKGLEWVAQIKDKGNAYAAYYAPSVKGRFTISRDDSKNSIYLQMNSLKTEDTAVYYCHYVHYASASTVFPAFGVDAWGQGTTVTVSS VL: DIVMTQSPLSLPVTPGEPASISCQASQELVHMNRNTYLHWYQQKPGQAPRLLIYKVSNRFPGVPDRFSGSGSGTDFTLKISRVEAEDVGVYYCAQGTSVPFTFGQGTKLEIK
13 | 0 | dBBDu183H S99W / dBBDu072L (antibody, name in Kabat numbering, V domains shown) VH: QVQLVESGGGLVQPGRSLRLSCAASGFTFSNAWMHWVRQAPGKGLEWVAQIKDKGNAYAAYYAPSVKGRFTISRDDSKNSIYLQMNSLKTEDTAVYYCHYVHYAWASTVLPAFGVDAWGQGTTVTVSS VL: DIVMTQSPLSLPVTPGEPASISCQASQELVHMNRNTYLHWYQQKPGQAPRLLIYKVSNRFPGVPDRFSGSGSGTDFTLKISRVEAEDVGVYYCAQGTSVPFTFGQGTKLEIK
14 | 0 | dBBDu183H P100eF / dBBDu072L (antibody, name in Kabat numbering, V domains shown) VH: QVQLVESGGGLVQPGRSLRLSCAASGFTFSNAWMHWVRQAPGKGLEWVAQIKDKGNAYAAYYAPSVKGRFTISRDDSKNSIYLQMNSLKTEDTAVYYCHYVHYASASTVLFAFGVDAWGQGTTVTVSS VL: DIVMTQSPLSLPVTPGEPASISCQASQELVHMNRNTYLHWYQQKPGQAPRLLIYKVSNRFPGVPDRFSGSGSGTDFTLKISRVEAEDVGVYYCAQGTSVPFTFGQGTKLEIK
15 | 0 | dBBDu183H P100eW / dBBDu072L (antibody, name in Kabat numbering, V domains shown) VH: QVQLVESGGGLVQPGRSLRLSCAASGFTFSNAWMHWVRQAPGKGLEWVAQIKDKGNAYAAYYAPSVKGRFTISRDDSKNSIYLQMNSLKTEDTAVYYCHYVHYASASTVLWAFGVDAWGQGTTVTVSS VL: DIVMTQSPLSLPVTPGEPASISCQASQELVHMNRNTYLHWYQQKPGQAPRLLIYKVSNRFPGVPDRFSGSGSGTDFTLKISRVEAEDVGVYYCAQGTSVPFTFGQGTKLEIK
16 | 0 | dBBDu183H Y94W / dBBDu072L (antibody, name in Kabat numbering, V domains shown) VH: QVQLVESGGGLVQPGRSLRLSCAASGFTFSNAWMHWVRQAPGKGLEWVAQIKDKGNAYAAYYAPSVKGRFTISRDDSKNSIYLQMNSLKTEDTAVYYCHWVHYASASTVLPAFGVDAWGQGTTVTVSS VL: DIVMTQSPLSLPVTPGEPASISCQASQELVHMNRNTYLHWYQQKPGQAPRLLIYKVSNRFPGVPDRFSGSGSGTDFTLKISRVEAEDVGVYYCAQGTSVPFTFGQGTKLEIK
17 | 0 | dBBDu183H V100iF / dBBDu072L (antibody, name in Kabat numbering, V domains shown) VH: QVQLVESGGGLVQPGRSLRLSCAASGFTFSNAWMHWVRQAPGKGLEWVAQIKDKGNAYAAYYAPSVKGRFTISRDDSKNSIYLQMNSLKTEDTAVYYCHYVHYASASTVLPAFGFDAWGQGTTVTVSS VL: DIVMTQSPLSLPVTPGEPASISCQASQELVHMNRNTYLHWYQQKPGQAPRLLIYKVSNRFPGVPDRFSGSGSGTDFTLKISRVEAEDVGVYYCAQGTSVPFTFGQGTKLEIK
18 | 0 | dBBDu183H V95W / dBBDu072L (antibody, name in Kabat numbering, V domains shown) VH: QVQLVESGGGLVQPGRSLRLSCAASGFTFSNAWMHWVRQAPGKGLEWVAQIKDKGNAYAAYYAPSVKGRFTISRDDSKNSIYLQMNSLKTEDTAVYYCHYWHYASASTVLPAFGVDAWGQGTTVTVSS VL: DIVMTQSPLSLPVTPGEPASISCQASQELVHMNRNTYLHWYQQKPGQAPRLLIYKVSNRFPGVPDRFSGSGSGTDFTLKISRVEAEDVGVYYCAQGTSVPFTFGQGTKLEIK
19 | 0 | dBBDu183H S100aW / dBBDu072L (antibody, name in Kabat numbering, V domains shown) VH: QVQLVESGGGLVQPGRSLRLSCAASGFTFSNAWMHWVRQAPGKGLEWVAQIKDKGNAYAAYYAPSVKGRFTISRDDSKNSIYLQMNSLKTEDTAVYYCHYVHYASAWTVLPAFGVDAWGQGTTVTVSS VL: DIVMTQSPLSLPVTPGEPASISCQASQELVHMNRNTYLHWYQQKPGQAPRLLIYKVSNRFPGVPDRFSGSGSGTDFTLKISRVEAEDVGVYYCAQGTSVPFTFGQGTKLEIK
20 | 0 | dBBDu183H V100iW / dBBDu072L (antibody, name in Kabat numbering, V domains shown) VH: QVQLVESGGGLVQPGRSLRLSCAASGFTFSNAWMHWVRQAPGKGLEWVAQIKDKGNAYAAYYAPSVKGRFTISRDDSKNSIYLQMNSLKTEDTAVYYCHYVHYASASTVLPAFGWDAWGQGTTVTVSS VL: DIVMTQSPLSLPVTPGEPASISCQASQELVHMNRNTYLHWYQQKPGQAPRLLIYKVSNRFPGVPDRFSGSGSGTDFTLKISRVEAEDVGVYYCAQGTSVPFTFGQGTKLEIK
21 | 0 | dBBDu183H T100bW / dBBDu072L (antibody, name in Kabat numbering, V domains shown) VH: QVQLVESGGGLVQPGRSLRLSCAASGFTFSNAWMHWVRQAPGKGLEWVAQIKDKGNAYAAYYAPSVKGRFTISRDDSKNSIYLQMNSLKTEDTAVYYCHYVHYASASWVLPAFGVDAWGQGTTVTVSS VL: DIVMTQSPLSLPVTPGEPASISCQASQELVHMNRNTYLHWYQQKPGQAPRLLIYKVSNRFPGVPDRFSGSGSGTDFTLKISRVEAEDVGVYYCAQGTSVPFTFGQGTKLEIK
